Measured values as given in publication PMC7923362.
* marks the point of attachment. Dnp = O=[N+]([O-])c1ccc(*)c([N+](=O)[O-])c1

Biological target: SARS-CoV-2 main protease (M^pro), tag-free, native N and C termini (SARS-CoV-2)

With {MCA}-AVLQSGFRK(Dnp)K-NH2 [FRET substrate MCA-AVLQSGFR-Lys(Dnp)-Lys-NH2] the Michaelis constant (Km) of the FRET-based enzymatic assay; M^pro 100 nM, substrate at various concentrations, Lineweaver-Burk plot was 1.41 µM.
